Source: patent US20220340657A1 (L AND L BIO CO LTD NINGBO CHINA, published 2022)

Tests used:
bio-LAG3-mFc = target: T1, bio-LAG3-mFc (human, UniProt P18627 23-450, biotin-labelled); test: blocking ELISA, LAG-3 on Daudi cells
T1 construct: also called hLAG-3
T1 sequence (looked up): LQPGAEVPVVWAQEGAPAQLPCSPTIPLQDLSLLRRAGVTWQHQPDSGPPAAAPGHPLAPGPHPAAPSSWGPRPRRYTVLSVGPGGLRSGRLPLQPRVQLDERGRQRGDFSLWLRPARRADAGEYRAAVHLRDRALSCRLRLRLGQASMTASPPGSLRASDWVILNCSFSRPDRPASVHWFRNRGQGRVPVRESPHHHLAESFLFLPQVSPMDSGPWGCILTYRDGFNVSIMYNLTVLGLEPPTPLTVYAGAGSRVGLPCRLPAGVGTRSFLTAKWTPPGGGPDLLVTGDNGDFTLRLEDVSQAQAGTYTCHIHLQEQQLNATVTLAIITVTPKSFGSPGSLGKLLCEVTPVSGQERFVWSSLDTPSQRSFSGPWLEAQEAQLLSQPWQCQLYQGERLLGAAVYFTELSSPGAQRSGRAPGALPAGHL

cyno-LAG3-hFc = target: T2, cyno-LAG3-hFc (cynomolgus monkey); test: ELISA
T2 construct: Bought product; also called cynomolgus monkey LAG-3
Experimental: (§1) After discarding the liquid, a blocking solution of 5% skimmed milk (Bright skimmed milk powder) diluted with PBS was added at 230 μl per well, followed by incubating at 37° C. for 3 hours or 4° C. overnight (16-18 hours) for blocking. Subsequently, the blocking solution was discarded, and the micropiate was washed 5 times with PBST buffer (pH 7.4 PBS containing 0.05% tweeen-20). Then 50 μl/well of the supernatant (containing the antibody to be tested) or a starting concentration of 10 μg/ml of the antibody to be tested, which was diluted 5 times in gradient, was added, followed by incubating the mixture for 1 hour at 37° C. […] After washing the microplate 5 times with PBST, 50 μl/well TIMB chromogenic substrate (KPL, Cat. No.: 52-00-03) was added, and then incubated for […] at room temperature. Finally, 50 μl/well of 1 M H₂SO₄ was added to stop the reaction. The absorbance value at 450 nm was read by […] GO microplate reader (ThermoFisher, Cat. No.: 51119200). The clones with high affinity were selected according to the OD value or the EC₅₀ value was calculated (for antibodies with known concentrations).

[1] = target: T3, murine LAG-3 his tagged (mLAG-3-his) (mouse, UniProt Q61790 23-406); test: ELISA
T3 construct: range 23-406; also called mouse LAG-3
T3 sequence: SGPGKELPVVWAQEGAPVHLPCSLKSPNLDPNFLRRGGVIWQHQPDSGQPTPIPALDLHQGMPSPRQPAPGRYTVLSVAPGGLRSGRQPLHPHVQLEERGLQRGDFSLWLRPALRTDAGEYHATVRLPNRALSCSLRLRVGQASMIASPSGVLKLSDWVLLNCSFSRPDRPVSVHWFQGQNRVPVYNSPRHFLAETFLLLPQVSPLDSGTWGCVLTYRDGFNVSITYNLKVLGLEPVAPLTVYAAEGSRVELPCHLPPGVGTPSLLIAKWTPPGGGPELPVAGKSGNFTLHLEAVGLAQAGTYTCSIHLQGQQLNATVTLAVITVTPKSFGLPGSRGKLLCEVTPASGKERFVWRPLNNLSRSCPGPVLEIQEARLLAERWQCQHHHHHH
Experimental: as §1

human LAG-3-hFc = target: T4, human LAG-3-hFc (human, UniProt P18627 23-422); test: ELISA
T4 construct: range 23-422; also called hLAG-3-hFc
T4 sequence (looked up): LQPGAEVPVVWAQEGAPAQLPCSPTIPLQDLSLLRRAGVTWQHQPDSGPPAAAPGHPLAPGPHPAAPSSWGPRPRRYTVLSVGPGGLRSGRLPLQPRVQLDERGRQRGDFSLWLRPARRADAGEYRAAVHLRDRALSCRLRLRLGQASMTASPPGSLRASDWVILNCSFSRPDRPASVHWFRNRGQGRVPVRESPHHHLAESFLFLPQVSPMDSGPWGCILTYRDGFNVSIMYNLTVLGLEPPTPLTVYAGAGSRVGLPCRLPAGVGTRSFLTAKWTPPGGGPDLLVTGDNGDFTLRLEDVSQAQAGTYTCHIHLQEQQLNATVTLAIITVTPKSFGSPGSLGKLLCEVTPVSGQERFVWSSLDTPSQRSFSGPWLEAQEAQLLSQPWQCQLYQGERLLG
Experimental: as §1

hLAG-3-D12-hFc = target: T5, hLAG-3-D12-hFc (human, UniProt P18627 23-239); test: ELISA
T5 construct: range 23-239
T5 sequence (looked up): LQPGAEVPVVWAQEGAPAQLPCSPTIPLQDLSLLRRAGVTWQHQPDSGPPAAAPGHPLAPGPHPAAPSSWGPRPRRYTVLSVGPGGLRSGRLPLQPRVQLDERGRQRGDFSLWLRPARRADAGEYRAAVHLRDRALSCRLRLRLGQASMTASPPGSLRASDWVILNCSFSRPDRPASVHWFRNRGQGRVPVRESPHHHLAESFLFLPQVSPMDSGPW
Experimental: as §1

human LAG-3-his [2] = target: T6, human LAG-3-his (human, UniProt P18627 23-422); test: ELISA
T6 construct: range 23-422; also called hLAG-3-his; hLAG-3
T6 sequence: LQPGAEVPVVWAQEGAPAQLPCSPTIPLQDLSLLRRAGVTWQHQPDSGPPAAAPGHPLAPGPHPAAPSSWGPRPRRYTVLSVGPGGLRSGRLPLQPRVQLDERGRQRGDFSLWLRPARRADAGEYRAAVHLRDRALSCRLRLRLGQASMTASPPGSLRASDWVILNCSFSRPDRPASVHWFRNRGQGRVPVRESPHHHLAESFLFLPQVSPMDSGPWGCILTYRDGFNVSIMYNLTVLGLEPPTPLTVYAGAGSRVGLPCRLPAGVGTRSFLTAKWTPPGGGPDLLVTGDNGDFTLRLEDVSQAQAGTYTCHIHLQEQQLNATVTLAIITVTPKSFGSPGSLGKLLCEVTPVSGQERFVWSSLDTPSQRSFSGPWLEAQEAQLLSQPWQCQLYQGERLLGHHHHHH
Experimental: as §1

hLAG-3-D12-his = target: T7, hLAG-3-D12-his (human, UniProt P18627 23-239); test: ELISA
T7 construct: range 23-239
T7 sequence: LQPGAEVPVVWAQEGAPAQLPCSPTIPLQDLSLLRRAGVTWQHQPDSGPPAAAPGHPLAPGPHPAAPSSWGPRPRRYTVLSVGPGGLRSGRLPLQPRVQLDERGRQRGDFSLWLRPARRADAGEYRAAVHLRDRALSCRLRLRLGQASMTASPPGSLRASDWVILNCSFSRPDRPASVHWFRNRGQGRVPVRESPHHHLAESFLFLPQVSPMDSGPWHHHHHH
Experimental: as §1

human LAG-3-his [3] = target: T6, human LAG-3-his; test: ELISA on hLAG-3
Experimental: as §1

Binder	IC50 (bio-LAG3-mFc)	EC50 (cyno-LAG3-hFc)	binding result [1]	EC50 (human LAG-3-hFc)	EC50 (hLAG-3-D12-hFc)	EC50 (human LAG-3-his [2])	EC50 (hLAG-3-D12-his)	EC50 (human LAG-3-his [3])
humanized anti-human LAG-3 antibody Ab2317 (antibody, human IgG4 S228P, kappa, V domains shown, LG2317 / LG2343, human kappa / hIgG4) VH: QVQLVQSGAEVKKPGASVKVSCKASGYTFTDYEMHWVKQAPGQGLEWIGGIDPETEGIAYNQKFRGRATLTADKSTSTAYMELRSLRSDDTAVYYCTNSNYYGGREAWFAYWGQGTLVTVSS VL: DIQMTQSPSSLSASVGDRVTITCRASQDIGSSLNWYQQKPGKAPKRLIYATSSLDSGVPSRFSGSRSGSDFTLTISSLQPEDFATYYCLQYVTSPLTFGGGTKVEIKR	2.7 nM	40.2 nM	no binding	0.25 nM	2.59 nM	0.16 nM	1.71 nM	0.119 nM
humanized antibody Ab2325 (antibody, human IgG4 S228P, kappa, V domains shown, LG2317 / LG2348, human kappa / hIgG4) VH: QVQLVQSGAEVKKPGASVKVSCKASGYTFTDYEMHWVKQAPGQGLEWMGGIDPETEGIAYNQKFRGRATMTTDTSTSTAYMELRSLRSDDTAVYYCANSNYYGGREAWFAYWGQGTLVTVSS VL: DIQMTQSPSSLSASVGDRVTITCRASQDIGSSLNWYQQKPGKAPKRLIYATSSLDSGVPSRFSGSRSGSDFTLTISSLQPEDFATYYCLQYVTSPLTFGGGTKVEIKR	3.6 nM	44.5 nM	no binding	0.4 nM	2.01 nM	0.19 nM	1.51 nM	0.142 nM
